Results as given in paper PMC11033290.
“And” between values parts separate entries of the source, which are not always exact repeats. Equal values may be shown once.

Molecular target: Recombinant M. tuberculosis MDP1 (Mycobacterial DNA-binding protein 1) produced in Mycolicibacterium (Mycobacterium tuberculosis) (UniProt P9WMK7)
Assay: cross-linking; glutaraldehyde 0.2%, room temperature, 30 min; 4 µM or 8 µM protein in 150-1500 mM NaCl; SDS-PAGE on a 4-15% gradient gel

Substance: Recombinant M. tuberculosis MDP1 (Mycobacterial DNA-binding protein 1) produced in Mycolicibacterium (from UniProt P9WMK7 3-216) (natural protein)
- stoichiometry N: 2 and 3
